We go through 31 molecules from PMC6555819, “Comprehensive study of nuclear receptor DNA binding provides a revised framework for understanding receptor specificity”.

The chains are these.
B1: NRC3_random_hg19_1_o1 (dsDNA)
DNA 1: GCGTGTTTGATTCTCATTGTCACCTTCTCTAGGCCTGCGATTGACAGCGTAGAATGAAGG
DNA 2: CCTTCATTCTACGCTGTCAATCGCAGGCCTAGAGAAGGTGACAATGAGAATCAAACACGC
B2: NRC3_wobSeed101_DR4_C13A_o1 (dsDNA)
DNA 1: GCCCTTACGGGTAACTCCAGGTTATAGCATCGGAGTGCGATTGACAGCGTAGAATGAAGG
DNA 2: CCTTCATTCTACGCTGTCAATCGCACTCCGATGCTATAACCTGGAGTTACCCGTAAGGGC
B3: NRC3_wobSeed136_DR5_G11C_o1 (dsDNA)
DNA 1: GCTAGCCTAGCTCATTCAGGGGCCAGTATAGAAAGCGCGATTGACAGCGTAGAATGAAGG
DNA 2: CCTTCATTCTACGCTGTCAATCGCGCTTTCTATACTGGCCCCTGAATGAGCTAGGCTAGC
B4: NRC3_random_hg19_229_o1 (dsDNA)
DNA 1: GCTAAACTGTATCCACTTACCTTTCTCAGAACCTTTGCGATTGACAGCGTAGAATGAAGG
DNA 2: CCTTCATTCTACGCTGTCAATCGCAAAGGTTCTGAGAAAGGTAAGTGGATACAGTTTAGC
B5: NRC3_wobSeed125_DR5_A14C_o1 (dsDNA)
DNA 1: GCCCTTACGGGTCCCTGACAGGTTATAGCATTTGGAGCGATTGACAGCGTAGAATGAAGG
DNA 2: CCTTCATTCTACGCTGTCAATCGCTCCAAATGCTATAACCTGTCAGGGACCCGTAAGGGC
B6: NRC3_wobSeed112_DR4_G5T_o1 (dsDNA)
DNA 1: GCTATCCTAGGTCAGATCGGGCCAGTATACGCTATAGCGATTGACAGCGTAGAATGAAGG
DNA 2: CCTTCATTCTACGCTGTCAATCGCTATAGCGTATACTGGCCCGATCTGACCTAGGATAGC
B7: NRC3_wobSeed6_DR0_G17T_o1 (dsDNA)
DNA 1: GCCCTAGCAGGCCAGGTTCACTCAAGCATTTCGCTTGCGATTGACAGCGTAGAATGAAGG
DNA 2: CCTTCATTCTACGCTGTCAATCGCAAGCGAAATGCTTGAGTGAACCTGGCCTGCTAGGGC
B8: NRC3_random_hg19_224_o1 (dsDNA)
DNA 1: GCCTTCCTAACTGAATCACCTCATCAACAGCTAAACGCGATTGACAGCGTAGAATGAAGG
DNA 2: CCTTCATTCTACGCTGTCAATCGCGTTTAGCTGTTGATGAGGTGATTCAGTTAGGAAGGC
B9: NRC3_random_hg19_159_o1 (dsDNA)
DNA 1: GCGGTTCAACATTCAGCAAACATTGGATGATAGTTTGCGATTGACAGCGTAGAATGAAGG
DNA 2: CCTTCATTCTACGCTGTCAATCGCAAACTATCATCCAATGTTTGCTGAATGTTGAACCGC
B10: NRC3_wobSeed82_DR3_G10C_o1 (dsDNA)
DNA 1: GCATCGAAACGTCGACGAGGTGAGTATACACCGTTTGCGATTGACAGCGTAGAATGAAGG
DNA 2: CCTTCATTCTACGCTGTCAATCGCAAACGGTGTATACTCACCTCGTCGACGTTTCGATGC
B11: NRC3_wobSeed10_DR0_A9T_o1 (dsDNA)
DNA 1: GCATCGAATGGTCGAGGTGAGTATAGAGAAAGGGAAGCGATTGACAGCGTAGAATGAAGG
DNA 2: CCTTCATTCTACGCTGTCAATCGCTTCCCTTTCTCTATACTCACCTCGACCATTCGATGC
B12: NRC3_wobSeed36_DR1_A16C_o1 (dsDNA)
DNA 1: GCCCGACTGGGGCAACGGTTACCATACTCAGTACGAGCGATTGACAGCGTAGAATGAAGG
DNA 2: CCTTCATTCTACGCTGTCAATCGCTCGTACTGAGTATGGTAACCGTTGCCCCAGTCGGGC
B13: NRC3_wobSeed135_DR5_C13G_o1 (dsDNA)
DNA 1: GCCGAACTAGGTGATTGACAGGACAGTGAATAGTAAGCGATTGACAGCGTAGAATGAAGG
DNA 2: CCTTCATTCTACGCTGTCAATCGCTTACTATTCACTGTCCTGTCAATCACCTAGTTCGGC
B14: NRC3_wobSeed28_DR1_T19A_o1 (dsDNA)
DNA 1: GCCCTACTGGGCCAAAGGACATTGATTCCAATGCTCGCGATTGACAGCGTAGAATGAAGG
DNA 2: CCTTCATTCTACGCTGTCAATCGCGAGCATTGGAATCAATGTCCTTTGGCCCAGTAGGGC
B15: NRC3_wobSeed28_DR1_T19C_o1 (dsDNA)
DNA 1: GCCCTACTGGGCCAAAGGCCATTGATTCCAATGCTCGCGATTGACAGCGTAGAATGAAGG
DNA 2: CCTTCATTCTACGCTGTCAATCGCGAGCATTGGAATCAATGGCCTTTGGCCCAGTAGGGC
B16: NRC3_wobSeed72_DR2_C15G_o1 (dsDNA)
DNA 1: GCTCGAGTAGGTTAGGGGGGCATTCAGGGATGAAGAGCGATTGACAGCGTAGAATGAAGG
DNA 2: CCTTCATTCTACGCTGTCAATCGCTCTTCATCCCTGAATGCCCCCCTAACCTACTCGAGC
B17: NRC3_wobSeed72_DR2_G17T_o1 (dsDNA)
DNA 1: GCTCGAGTAGGTTACGTGGGCATTCAGGGATGAAGAGCGATTGACAGCGTAGAATGAAGG
DNA 2: CCTTCATTCTACGCTGTCAATCGCTCTTCATCCCTGAATGCCCACGTAACCTACTCGAGC
B18: NRC3_wobSeed62_DR2_T16G_o1 (dsDNA)
DNA 1: GCTCTGCTAGGTCAGGTGGTCAGCTAACGAGCTGCCGCGATTGACAGCGTAGAATGAAGG
DNA 2: CCTTCATTCTACGCTGTCAATCGCGGCAGCTCGTTAGCTGACCACCTGACCTAGCAGAGC
B19: NRC3_wobSeed57_DR2_T19G_o1 (dsDNA)
DNA 1: GCATCTCTAGGTAACAAGGTCAGTGAAAGAGAGGACGCGATTGACAGCGTAGAATGAAGG
DNA 2: CCTTCATTCTACGCTGTCAATCGCGTCCTCTCTTTCACTGACCTTGTTACCTAGAGATGC
B20: NRC3_wobSeed76_DR3_A16T_o1 (dsDNA)
DNA 1: GCCCTACTGGGCCAATAAGGTCATTGATGCCGATAAGCGATTGACAGCGTAGAATGAAGG
DNA 2: CCTTCATTCTACGCTGTCAATCGCTTATCGGCATCAATGACCTTATTGGCCCAGTAGGGC
B21: NRC3_wobSeed45_DR1_T11C_o1 (dsDNA)
DNA 1: GCTGTCAAAGCTCAAAGGTAACGTAAGTATCCACACGCGATTGACAGCGTAGAATGAAGG
DNA 2: CCTTCATTCTACGCTGTCAATCGCGTGTGGATACTTACGTTACCTTTGAGCTTTGACAGC
B22: NRC3_wobSeed123_DR5_G21T_o1 (dsDNA)
DNA 1: GCCCTCGGAGGACAACAGGATGTCAGAGCTGCCAGAGCGATTGACAGCGTAGAATGAAGG
DNA 2: CCTTCATTCTACGCTGTCAATCGCTCTGGCAGCTCTGACATCCTGTTGTCCTCCGAGGGC
B23: NRC3_wobSeed110_DR4_A9T_o1 (dsDNA)
DNA 1: GCTCTGCTTGGTCAACGATGGTCAGCTAATCTGCTAGCGATTGACAGCGTAGAATGAAGG
DNA 2: CCTTCATTCTACGCTGTCAATCGCTAGCAGATTAGCTGACCATCGTTGACCAAGCAGAGC
B24: NRC3_wobSeed110_DR4_G10T_o1 (dsDNA)
DNA 1: GCTCTGCTATGTCAACGATGGTCAGCTAATCTGCTAGCGATTGACAGCGTAGAATGAAGG
DNA 2: CCTTCATTCTACGCTGTCAATCGCTAGCAGATTAGCTGACCATCGTTGACATAGCAGAGC
B25: NRC3_wobSeed58_DR2_G10T_o1 (dsDNA)
DNA 1: GCATCGAAATGTCGTGAGGTGAGTATACAGAAAGGCGCGATTGACAGCGTAGAATGAAGG
DNA 2: CCTTCATTCTACGCTGTCAATCGCGCCTTTCTGTATACTCACCTCACGACATTTCGATGC
B26: NRC3_wobSeed58_DR2_G10C_o1 (dsDNA)
DNA 1: GCATCGAAACGTCGTGAGGTGAGTATACAGAAAGGCGCGATTGACAGCGTAGAATGAAGG
DNA 2: CCTTCATTCTACGCTGTCAATCGCGCCTTTCTGTATACTCACCTCACGACGTTTCGATGC
B27: NRC3_wobSeed93_DR3_C13G_o1 (dsDNA)
DNA 1: GCAGTCAAAGTTGATCTAGGTAACGTAAGATATGCTGCGATTGACAGCGTAGAATGAAGG
DNA 2: CCTTCATTCTACGCTGTCAATCGCAGCATATCTTACGTTACCTAGATCAACTTTGACTGC
B28: NRC3_wobSeed114_DR4_A14C_o1 (dsDNA)
DNA 1: GCAATACAGGGTCCTCGTAGGCCAGAGTACGCACAGGCGATTGACAGCGTAGAATGAAGG
DNA 2: CCTTCATTCTACGCTGTCAATCGCCTGTGCGTACTCTGGCCTACGAGGACCCTGTATTGC
B29: NRC3_wobSeed63_DR2_G10A_o1 (dsDNA)
DNA 1: GCCGAACTAAGTCACCAGGACAGTGAAGAGGTTGGAGCGATTGACAGCGTAGAATGAAGG
DNA 2: CCTTCATTCTACGCTGTCAATCGCTCCAACCTCTTCACTGTCCTGGTGACTTAGTTCGGC
B30: NRC3_wobSeed16_DR0_G11T_o1 (dsDNA)
DNA 1: GCCAGCCTAGTTCAGGGCCAGTATAGGAGGAACGTTGCGATTGACAGCGTAGAATGAAGG
DNA 2: CCTTCATTCTACGCTGTCAATCGCAACGTTCCTCCTATACTGGCCCTGAACTAGGCTGGC
B31: NRC3_wobSeed99_DR4_G20C_o1 (dsDNA)
DNA 1: GCTCTCGGAGGACACGAAACGTCAGAGCTCGACATCGCGATTGACAGCGTAGAATGAAGG
DNA 2: CCTTCATTCTACGCTGTCAATCGCGATGTCGAGCTCTGACGTTTCGTGTCCTCCGAGAGC

RARg:RXRa, sequence (P13631 whole entry, chain 1 of 2): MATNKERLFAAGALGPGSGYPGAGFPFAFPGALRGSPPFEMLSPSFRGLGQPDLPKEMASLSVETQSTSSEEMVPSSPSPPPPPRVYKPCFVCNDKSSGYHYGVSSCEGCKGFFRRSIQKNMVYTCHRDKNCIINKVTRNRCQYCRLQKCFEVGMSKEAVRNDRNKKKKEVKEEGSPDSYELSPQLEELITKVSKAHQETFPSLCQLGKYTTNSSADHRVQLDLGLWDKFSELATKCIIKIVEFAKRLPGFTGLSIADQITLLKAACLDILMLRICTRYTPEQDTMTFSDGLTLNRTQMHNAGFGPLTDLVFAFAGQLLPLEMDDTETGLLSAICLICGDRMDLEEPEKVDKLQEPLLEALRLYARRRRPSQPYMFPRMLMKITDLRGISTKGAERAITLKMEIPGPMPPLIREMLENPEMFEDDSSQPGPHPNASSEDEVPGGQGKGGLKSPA
RARg:RXRa, sequence (P19793 whole entry, chain 2 of 2): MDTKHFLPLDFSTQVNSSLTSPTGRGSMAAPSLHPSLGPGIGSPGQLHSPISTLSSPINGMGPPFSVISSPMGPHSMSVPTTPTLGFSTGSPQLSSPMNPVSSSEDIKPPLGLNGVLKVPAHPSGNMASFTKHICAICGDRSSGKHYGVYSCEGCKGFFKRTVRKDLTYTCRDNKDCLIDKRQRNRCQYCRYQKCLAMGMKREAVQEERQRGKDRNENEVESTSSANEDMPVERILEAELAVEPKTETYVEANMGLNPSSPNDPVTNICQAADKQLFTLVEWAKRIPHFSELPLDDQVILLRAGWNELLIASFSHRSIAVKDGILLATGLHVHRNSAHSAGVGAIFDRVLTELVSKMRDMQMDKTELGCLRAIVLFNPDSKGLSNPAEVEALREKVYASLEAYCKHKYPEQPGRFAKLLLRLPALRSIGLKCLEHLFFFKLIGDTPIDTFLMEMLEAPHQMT

This data set concerns the target RARg:RXRa (Homo sapiens, UniProt P13631;P19793 full;full). Description: no ligand; PBM; 270 nM : 90 nM RXRa; PBS pH 7.4, 2% milk, 0.02% Triton X-100, 1 mM DTT, BSA, 0.4 mg/ml salmon testes DNA. Particulars: tags: His kept;His cleaved; copies: 1;1; label: surface-attached array probe. Summed up:
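Random background probes are the reference for binding z-scores. These scores derive from regression-normalized fluorescence on custom Agilent 4×180K protein-binding microarrays incubated 1 h with ligand-free nuclear receptor dimers. Binding was detected with antibodies against each partner (one per run).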
Consider B1, for which the binding signal is 0.33 PBM z-score against 500 random probes.
B2: the binding signal is 0.35 PBM z-score against 500 random probes.
With B3, the binding signal was -0.31 PBM z-score against 500 random probes.
With B4, the binding signal was 0.44 PBM z-score against 500 random probes.
For the molecule B5, the binding signal was 0.36 PBM z-score against 500 random probes.
Take B6: the binding signal was 3.16 PBM z-score against 500 random probes.
As for B7, the binding signal was 0.25 PBM z-score against 500 random probes.
For B8, the binding signal is 0.38 PBM z-score against 500 random probes.
In the case of B9 it was 0.49 PBM z-score against 500 random probes; in that of B10, 0.46 PBM z-score against 500 random probes.
Turning to B11, the binding signal is 0.4 PBM z-score against 500 random probes.
As to B12, the binding signal was 0.38 PBM z-score against 500 random probes.
Consider B13, for which the binding signal is 0.33 PBM z-score against 500 random probes.
On to B14, for which the binding signal was 0.42 PBM z-score against 500 random probes.
In the case of B15 it was 0.32 PBM z-score against 500 random probes; in that of B16, 3.1 PBM z-score against 500 random probes.
Turning to B17, the binding signal was 0.43 PBM z-score against 500 random probes.
Turning to B18, the binding signal was 3.05 PBM z-score against 500 random probes.
For the molecule B19, the binding signal is 3 PBM z-score against 500 random probes.
For B20, the binding signal was 3.2 PBM z-score against 500 random probes.
Consider B21, for which the binding signal was 0.5 PBM z-score against 500 random probes.
Regarding B22, the binding signal was 0.5 PBM z-score against 500 random probes.
In the case of B23, the binding signal is 0.29 PBM z-score against 500 random probes.
Take B24: the binding signal was 0.22 PBM z-score against 500 random probes.
On to B25, for which the binding signal was 0.29 PBM z-score against 500 random probes.
Under B26 stands 0.27 PBM z-score against 500 random probes; under B27, 0.37 PBM z-score against 500 random probes; under B28, 0.23 PBM z-score against 500 random probes.
In the case of B29 it was 0.3 PBM z-score against 500 random probes; in that of B30, 0.39 PBM z-score against 500 random probes.
Regarding B31, the binding signal was 0.45 PBM z-score against 500 random probes.
